In US20240182580A1:

What was measured:
[1] = biological target: CD74 on human tumour cell lines (human) (UniProt P04233); assay: flow cytometry on JVM-13 (CLL) cells, geometric MFI, one-site specific binding fit
[2] = biological target: CD74 on human tumour cell lines (human) (UniProt P04233); assay: flow cytometry on RPMI-6666 (HL) cells, one-site specific binding fit
[3] = biological target: CD74 on human tumour cell lines (human) (UniProt P04233); assay: flow cytometry on ARD (MM) cells, one-site specific binding fit
[4] = biological target: CD74 on human tumour cell lines (human) (UniProt P04233); assay: flow cytometry on ARD (MM) cells, geometric MFI, one-site specific binding fit
[5] = biological target: CD74 on human tumour cell lines (human) (UniProt P04233); assay: flow cytometry on SU-DHL-6 (NHL) cells; Table 3 repeats Table 2
[6] = biological target: CD74 on human tumour cell lines (human) (UniProt P04233); assay: flow cytometry on RPMI-8226 (MM) cells, geometric MFI, one-site specific binding fit
[7] = biological target: CD74 on human tumour cell lines (human) (UniProt P04233); assay: flow cytometry on RPMI-8226 (MM) cells, one-site specific binding fit
[8] = biological target: CD74 on human tumour cell lines (human) (UniProt P04233); assay: flow cytometry on SU-DHL-6 (NHL) cells, geometric MFI, one-site specific binding fit
[9] = biological target: CD74 on human tumour cell lines (human) (UniProt P04233); assay: flow cytometry on BDCM (AML) cells, one-site specific binding fit
[10] = biological target: CD74 on human tumour cell lines (human) (UniProt P04233); assay: flow cytometry on SUP-B15 (ALL) cells, one-site specific binding fit
[11] = biological target: CD74 on human tumour cell lines (human) (UniProt P04233); assay: flow cytometry on ARD (MM) cells; Table 3 repeats Table 2
[12] = biological target: CD74 on human tumour cell lines (human) (UniProt P04233); assay: flow cytometry on SU-DHL-6 (NHL) cells, one-site specific binding fit
[13] = biological target: CD74 on human tumour cell lines (human) (UniProt P04233); assay: flow cytometry on BDCM (AML) cells, geometric MFI, one-site specific binding fit
[14] = biological target: CD74 on human tumour cell lines (human) (UniProt P04233); assay: flow cytometry on RPMI-6666 (HL) cells, geometric MFI, one-site specific binding fit
[15] = biological target: CD74 on human tumour cell lines (human) (UniProt P04233); assay: flow cytometry on SUP-B15 (ALL) cells; Table 3 repeats Table 2; parameters: Bmax: unit not given here
[16] = biological target: CD74 on human tumour cell lines (human) (UniProt P04233); assay: flow cytometry on RPMI-8226 (MM) cells; Table 3 repeats Table 2
[17] = biological target: CD74 on human tumour cell lines (human) (UniProt P04233); assay: flow cytometry on SUP-B15 (ALL) cells, geometric MFI, one-site specific binding fit
[18] = biological target: CD74 on human tumour cell lines (human) (UniProt P04233); assay: flow cytometry on JVM-13 (CLL) cells; Table 3 repeats Table 2; parameters: Bmax: unit not given here
[19] = biological target: CD74 on human tumour cell lines (human) (UniProt P04233); assay: flow cytometry on ARP-1 (MM) cells, geometric MFI, one-site specific binding fit
[20] = biological target: CD74 on human tumour cell lines (human) (UniProt P04233); assay: flow cytometry on ARP-1 (MM) cells; Table 3 repeats Table 2
[21] = biological target: CD74 on human tumour cell lines (human) (UniProt P04233); assay: flow cytometry on RPMI-6666 (HL) cells; Table 3 repeats Table 2
[22] = biological target: CD74 on human tumour cell lines (human) (UniProt P04233); assay: flow cytometry on JVM-13 (CLL) cells, one-site specific binding fit
[23] = biological target: CD74 on human tumour cell lines (human) (UniProt P04233); assay: flow cytometry on BDCM (AML) cells; Table 3 repeats Table 2

Bmax [1]: 447
Kd [2]: 2.3 nM
Kd [3]: 2.6 nM
Bmax [4]: 190
Bmax [5]: 1560
Kd [5]: 2 nM
Bmax [6]: 119
Kd [7]: 3.6 nM
Bmax [8]: 1560
Kd [9]: 4.5 nM
Kd [10]: 3.5 nM
Bmax [11]: 190
Kd [11]: 2.6 nM
Kd [12]: 2 nM
Bmax [13]: 3060
Bmax [14]: 3880
Bmax [15]: 680
Kd [15]: 3.5 nM
Bmax [16]: 119
Kd [16]: 3.6 nM
Bmax [17]: 680
Bmax [18]: 447
Kd [18]: 2.5 nM
Bmax [19]: 341
Bmax [20]: 341
Bmax [21]: 3880
Kd [21]: 2.3 nM
Kd [22]: 2.5 nM
Bmax [23]: 3060
Kd [23]: 4.5 nM
B1: anti-CD74 antibody without conjugation (anti-CD74 IgG of Examples 2 and 3) (antibody, V domains shown)
VH: QVQLVESGGGVVQPGRSLRLSCAASGFNFSDYGMHWVRQAPGKGLEWVAVIWYDGSISYYADSVKGRFTISRDNSKNTLYLQMNSLRAEDTAVYYCARGGTVEHGAVYGTDVWGQGTTVTVSS
VL: DIQMTQSPSSVSASVGDRVTITCRASQGIGSWLAWYQQKPGKAPKLLIYAADRLQSGVPSRFSGSGSGTDFTLTISSLQPEDFATYYCQQYHTYPLTFGGGTKVEIK
